# Test results reported in patent US20160152729A1.
# Target: human TFPIα (human) (UniProt P10646)
# Assay: SPR Biacore T200; antibody captured on anti-human IgG Fc; TFPI as analyte; 1:1 model
substance,measurement,value
Bay 2A8-K95L (antibody),Kd,0.485 nM
same,koff,0.000399 s⁻¹
same,kon,822000 M⁻¹ s⁻¹
